Source: publication PMC6189496, “Epstein-Barr Virus Nuclear Antigen 3C Inhibits Expression of COBLL1 and the ADAM28-ADAMDEC1 Locus via Interaction with the Histone Lysine Demethylase KDM2B” (Journal of Virology, 2018)

T1: histone lysine demethylase KDM2B (human (endogenous in LCLs), UniProt Q8NHM5 1-1336)
T1 construct: KDM2B, endogenous in lymphoblastoid cell lines, immunoprecipitated with anti-KDM2B (09-864; Millipore); also called FBXL10; JHDM1B; source: endogenous, LCL lysate
T1 sequence (looked up): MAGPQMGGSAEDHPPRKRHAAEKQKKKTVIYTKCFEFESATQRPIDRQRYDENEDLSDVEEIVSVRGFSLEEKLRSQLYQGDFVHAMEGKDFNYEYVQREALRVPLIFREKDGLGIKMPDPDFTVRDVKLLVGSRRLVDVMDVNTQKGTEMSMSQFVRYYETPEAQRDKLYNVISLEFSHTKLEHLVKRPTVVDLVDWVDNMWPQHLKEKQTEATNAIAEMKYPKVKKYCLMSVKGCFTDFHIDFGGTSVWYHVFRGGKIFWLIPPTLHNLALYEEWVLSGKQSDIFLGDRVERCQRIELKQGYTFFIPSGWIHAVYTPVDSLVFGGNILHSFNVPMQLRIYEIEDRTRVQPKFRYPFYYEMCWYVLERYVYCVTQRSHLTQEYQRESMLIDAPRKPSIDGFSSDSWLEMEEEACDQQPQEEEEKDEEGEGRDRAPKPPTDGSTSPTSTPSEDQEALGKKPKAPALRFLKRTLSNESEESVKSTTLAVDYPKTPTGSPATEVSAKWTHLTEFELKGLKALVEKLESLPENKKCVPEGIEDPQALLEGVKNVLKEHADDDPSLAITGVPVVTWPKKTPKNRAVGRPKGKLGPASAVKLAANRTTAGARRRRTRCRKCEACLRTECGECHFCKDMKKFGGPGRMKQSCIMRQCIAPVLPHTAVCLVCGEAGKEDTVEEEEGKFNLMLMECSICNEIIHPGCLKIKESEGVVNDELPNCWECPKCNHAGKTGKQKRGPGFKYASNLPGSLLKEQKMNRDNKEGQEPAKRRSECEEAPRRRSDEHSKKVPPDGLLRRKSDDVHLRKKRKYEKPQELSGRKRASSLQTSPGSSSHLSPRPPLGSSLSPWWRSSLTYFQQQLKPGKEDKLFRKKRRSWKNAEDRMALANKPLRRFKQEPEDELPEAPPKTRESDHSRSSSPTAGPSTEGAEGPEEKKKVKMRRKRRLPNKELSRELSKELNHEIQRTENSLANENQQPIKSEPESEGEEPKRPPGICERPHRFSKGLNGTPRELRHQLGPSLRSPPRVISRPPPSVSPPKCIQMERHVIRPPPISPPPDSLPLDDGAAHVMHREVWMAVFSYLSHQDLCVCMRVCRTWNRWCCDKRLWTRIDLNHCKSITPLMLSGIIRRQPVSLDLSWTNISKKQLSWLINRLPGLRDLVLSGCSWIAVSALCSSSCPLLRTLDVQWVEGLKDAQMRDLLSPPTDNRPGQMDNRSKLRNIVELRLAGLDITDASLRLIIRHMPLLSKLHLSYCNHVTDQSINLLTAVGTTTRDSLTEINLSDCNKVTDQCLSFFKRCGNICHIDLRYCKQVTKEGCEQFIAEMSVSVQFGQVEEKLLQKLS

T2: BMI1 (human (endogenous in LCLs), UniProt P35226 1-326)
T2 construct: BMI1, endogenous in lymphoblastoid cell lines, immunoprecipitated with anti-BMI1 (A301-694A; Bethyl); also called PRC1 core component BMI1; source: endogenous, LCL lysate
T2 sequence (looked up): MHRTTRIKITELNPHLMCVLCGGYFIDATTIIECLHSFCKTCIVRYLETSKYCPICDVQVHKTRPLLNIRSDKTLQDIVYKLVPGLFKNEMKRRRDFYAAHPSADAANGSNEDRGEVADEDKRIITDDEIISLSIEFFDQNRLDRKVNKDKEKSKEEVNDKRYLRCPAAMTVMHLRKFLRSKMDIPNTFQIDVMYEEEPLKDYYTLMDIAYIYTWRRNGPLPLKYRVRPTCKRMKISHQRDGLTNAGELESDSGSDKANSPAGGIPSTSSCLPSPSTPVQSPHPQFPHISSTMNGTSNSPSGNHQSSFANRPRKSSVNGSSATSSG

B1: EBNA3C HDmut (209TFGC212 mutated to 209AAAA212) (natural protein)
chain: MESFEGQGDSRQSPDNERGDNVQTTGEHDQDPGPGPPSSGASERLVPEESYSRDQQPWGQSRGDENRGWMQRIRRRRRRRAALSGHLLDTEDNVPPWLPPHDITPYTARNIRDAACRAVKQSHLQALSNLILDSGLDTQHILCFVMAARQRLQDIRRGPLVAEGGVGWRHWLLTSPSQSWPMGYRTATLRTLTPVPNRVGADSIMLTAAAAAQNAARTLNTFSATVWTPPHAGPREQERYAREAEVRFLRGKWQRRYRRIYDLIELCGSLHHIWQNLLQTEENLLDFVRFMGVMSSCNNPAVNYWFHKTIGNFKPYYPWNAPPNENPYHARRGIKEHVIQNAFRKAQIQGLSMLATGGEPRGDATSETSSDEDTGRQGSDVELESSDDELPYIDPNMEPVQQRPVMFVSRVPAKKPRKLPWPTPKTHPVKRTNVKTSDRSDKAEAQSTPERPGPSEQSSVTVEPAHPTPVEMPMVILHQPPPVPKPVPVKPTPPPSRRRRGACVVYDDDVIEVIDVETTEDSSSVSQPNKPHRKHQDGFQRSGRRQKRAAPPTVSPSDTGPPAVGPPAAGPPAAGPPAAGPPAAGPPAAGPPAAGPRILAPLSAGPPAAGPHIVTPPSARPRIMAPPVVRMFMRERQLPQSTGRKPQCFWEMRAGREITQMQQEPSSHLQSATQPTTPRPSWAPSVCALSVMDAGKAQPIESSHLSSMSPTQPISHEEQPRYEDPDAPLDLSLHPDVAAQPAPQAPYQGYQEPPAPQAPYQGYQEPPPPQAPYQGYQEPPAHGLQSSSYPGYAGPWTPRSQHPCYRHPWAPWSQDPVHGHTQGPWDPRAPHLPPQWDGSAGHGQDQVSQFPHLQSETGPPRLQLSLVPLVSSSAPSWSSPQPRAPIRPIPTRFPPPPMPLQDSMAVGCDSSGTACPSMPFASDYSQGAFTPLDINATTPKRPRVEESSHGPARCSQATAEAQEILSDNSEISVFPKDAKQTDYDASTESELD
notes: EBNA3C of Epstein-Barr virus, strain B95.8, with the TFGC (homology domain) motif mutated to alanines; also called homology domain mutant
B2: EBNA3C W227S (natural protein)
chain: MESFEGQGDSRQSPDNERGDNVQTTGEHDQDPGPGPPSSGASERLVPEESYSRDQQPWGQSRGDENRGWMQRIRRRRRRRAALSGHLLDTEDNVPPWLPPHDITPYTARNIRDAACRAVKQSHLQALSNLILDSGLDTQHILCFVMAARQRLQDIRRGPLVAEGGVGWRHWLLTSPSQSWPMGYRTATLRTLTPVPNRVGADSIMLTATFGCQNAARTLNTFSATVSTPPHAGPREQERYAREAEVRFLRGKWQRRYRRIYDLIELCGSLHHIWQNLLQTEENLLDFVRFMGVMSSCNNPAVNYWFHKTIGNFKPYYPWNAPPNENPYHARRGIKEHVIQNAFRKAQIQGLSMLATGGEPRGDATSETSSDEDTGRQGSDVELESSDDELPYIDPNMEPVQQRPVMFVSRVPAKKPRKLPWPTPKTHPVKRTNVKTSDRSDKAEAQSTPERPGPSEQSSVTVEPAHPTPVEMPMVILHQPPPVPKPVPVKPTPPPSRRRRGACVVYDDDVIEVIDVETTEDSSSVSQPNKPHRKHQDGFQRSGRRQKRAAPPTVSPSDTGPPAVGPPAAGPPAAGPPAAGPPAAGPPAAGPPAAGPRILAPLSAGPPAAGPHIVTPPSARPRIMAPPVVRMFMRERQLPQSTGRKPQCFWEMRAGREITQMQQEPSSHLQSATQPTTPRPSWAPSVCALSVMDAGKAQPIESSHLSSMSPTQPISHEEQPRYEDPDAPLDLSLHPDVAAQPAPQAPYQGYQEPPAPQAPYQGYQEPPPPQAPYQGYQEPPAHGLQSSSYPGYAGPWTPRSQHPCYRHPWAPWSQDPVHGHTQGPWDPRAPHLPPQWDGSAGHGQDQVSQFPHLQSETGPPRLQLSLVPLVSSSAPSWSSPQPRAPIRPIPTRFPPPPMPLQDSMAVGCDSSGTACPSMPFASDYSQGAFTPLDINATTPKRPRVEESSHGPARCSQATAEAQEILSDNSEISVFPKDAKQTDYDASTESELD
notes: EBNA3C of Epstein-Barr virus, strain B95.8, with W227S in the 226VWTP229 motif

Tests used:
[1] = target: T1, histone lysine demethylase KDM2B; experiment: co-IP; LCL extracts (10^7 cells lysed in IP buffer, precleared); the cellular protein (RBPJ, BMI1, SUZ12 or KDM2B) immunoprecipitated from 200 ug lysate overnight at 4°C, protein G-Sepharose, four washes; Western blot for EBNA3C; isotype IgG control; mutants quantified by ImageJ as percent relative IP compared to EBNA3C WT; details: partners not purified
BMI1 = target: T2, BMI1; experiment: as above; details: partners not purified

Binder	percent relative IP compared to EBNA3C WT [1] [%]	percent relative IP compared to EBNA3C WT (BMI1) [%]
B1	8	60
B2	80	
